In the test the target is human SR-BI with 12 vector-derived amino acids added to the carboxyl terminal (pcDNA3-SR-BI construct of Example 3) (human) (UniProt Q8WTV0). The experiment in a line: FACS dot plot, BHK-21 cells transiently transfected with pcDNA3-SR-BI.
Sequence of UniProt Q8WTV0 (Q8WTV0 other isoform, or with tags, fused parts or gaps limits assumed): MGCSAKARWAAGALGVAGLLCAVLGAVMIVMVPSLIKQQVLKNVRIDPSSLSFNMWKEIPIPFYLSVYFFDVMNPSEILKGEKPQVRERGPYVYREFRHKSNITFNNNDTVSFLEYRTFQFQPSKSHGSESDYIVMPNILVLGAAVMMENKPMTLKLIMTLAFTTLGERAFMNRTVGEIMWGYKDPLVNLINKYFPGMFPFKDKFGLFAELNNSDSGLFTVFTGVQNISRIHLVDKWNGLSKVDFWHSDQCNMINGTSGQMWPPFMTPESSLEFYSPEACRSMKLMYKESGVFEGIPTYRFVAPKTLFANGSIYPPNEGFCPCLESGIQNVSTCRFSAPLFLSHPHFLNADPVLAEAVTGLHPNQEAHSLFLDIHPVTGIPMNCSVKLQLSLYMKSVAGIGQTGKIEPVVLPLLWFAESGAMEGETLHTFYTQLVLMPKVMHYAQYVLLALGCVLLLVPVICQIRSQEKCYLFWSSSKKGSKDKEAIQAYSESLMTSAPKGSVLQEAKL

“HCV E2 recombinant protein, genotype 1a (strain H), amino acids 384-661 of the HCV polyprotein with C-terminal 6 His tag (from UniProt P27958 384-661) (ligand)” gave a percent of transfected cells that bind E2 of 10%.

These data come from patent publication US20050019751A1.
